Laboratory results as given in the DeepSol protein solubility set.

Assay: soluble on expression in E. coli; label from the status in PepcDB or PDB records

Sequence | soluble on expression in E. coli
MGSDKIHHHHHHMRVLAAMSGGVDSAVAAARAVEAGHDVVGVHLALSRMPGTLRTGSRGCCTIEDSRDAWRACDVLGIPYYVWDFSERFKEDVVQDFIDEYAAGRTPNPCMRCNERIKFAALLEKAIALGFDAVCTGHYAKVITDADGNPELHRAADWAKDQSYVLGVLTHEQLKHSMFPLADTPSKAEVRAEAERRGLSVANKPDSHDICFIPDGDTAGWLAEKIEMTTGDIVDEAGTKVGEHPGANAFTVGQRRGLKLGTPAADGKPRFVLEIRPKENKVVVGPEALLAIDEIRGIKVSWAGLPIAEVATGDEFDCHAQVRAHGDPVPATARMERLTDDDGAERTNLVVTLATPLRGVAPGQTVVLYQGSRVLGQATIDTARSLQRAAL | not soluble
MSEPISPRTPQQALAALLARYAPKHLLLVGASRLPAVEAFIHNHPQCQLAHSPAAALPAELAGQRFDLALFVDCLEHLPQRTGLQLLAGVRNLNASRVAVLVDLEASDWQETDFFALAMQNSERFQREGQTLTLYTYDLYEYKQVPDWLNAKFWANPENFGKYWW | not soluble
EGDIHMSLSHPPIPILELADHIERLKANDNLKFSQEYESIDPGQQFTWEHSNLEVNKPKNRYANVIAYDHSRVLLSAIEGIPGSDYVNANYIDGYRKQNAYIATQGSLPETFGDFWRMIWEQRSATVVMMTKLEERSRVKCDQYWPSRGTETHGLVQVTLLDTVELATYCVRTFALYKNGSSEKREVRQFQFTAWPDHGVPEHPTPFLAFLRRVKTCNPPDAGPMVVHCSAGVGRTGCFIVIDAMLERIKHEKTVDIYGHVTLMRAQRNYMVQTEDQYIFIHDALLEAVTCGNTEVPARNLYAYIQKLTQIETGENVTGMELEFKRLASSKAHTSRFISANLPCNKFKNRLVNIMPYESTRVCLQPIRGVEGSDYINASFLDGYRQQKAYIATQGPLAETTEDFWRMLWEHNSTIVVMLTKLREMGREKCHQYWPAERSARYQYFVVDPMAEYNMPQYILREFKVTDARDGQSRTVRQFQFTDWPEQGVPKSGEGFIDFIGQVHKTKEQFGQDGPISVHCSAGVGRTGVFITLSIVLERMRYEGVVDIFQTVKMLRTQRPAMVQTEDQYQFCYRAALEYLGSFDHYATEGHHHHHH | not soluble
MDSENKTSIAIGCKVCNKYKVTKLLGGGSYGCVHEVIELKTGDRYAMKSEYSSMKKPILLNELKVMKAIYTFSSQHVLKVRDMGVHGSTKFIIMQMLEKNMDEVFELLGGSMTLNTAVATSYQCLEGLEFMHWAGFLHRDIKPNNYCLDANSGQGLRTIYIIDYGICKRFVDNNNVIRQPRKITKFRGTLDFAPIVSHELREHSRGSDLES | not soluble
MAHHHHHHMYRNLFDKLKDGPLKISILGSGNWASAISKVVGTNAKNNYLFENEVRMWIRDEFVNGERMVDIINNKHENTKYLKGVPLPHNIVAHSDLASVINDADLLIFIVPCQYLESVLASIKESESIKIASHAKAISLTKGFIVKKNQMKLCSNYISDFLNIPCSALSGANIAMDVAMENFSEATIGGNDKDSLVIWQRVFDLPYFKINCVNETIEVEICGALKNIITLACGFCDGLNLPTNSKSAIIRNGINEMILFGKVFFQKFNENILLESCGFADIITSFLAGRNAKCSAEFIKSTPKKTWEELENEILKGQKLQGTVTLKYVYHMIKEKNMTNEFPLFTVLHKISFENEDPSSLLKTFMNNKINQLNL | soluble
EELEYKGMNTLQISNVDDLISFYQYADDRIPLISGHRGGRGKGYPENSMETFENTLSYTPATFEIDPRLTKDSVIVLFHDDTLERTSNGTGKVSDYTWEELQNFRLKDPEGNITNYRIPTLEEAIRWARGKTILILDKKDVPMERTAQLITDMQAEPYVMITVHDGASARFFYEKNPNFMFEAFVKTKEAVQDYEDNGIPWSHIMAYVGPKITPEVREVIDMLHERGVMCMISTAPSDDKLSTPESRAEAYRMIIRQGVDIIESDRPIEVAEAISSLIPVSSSKGKFFSTL | soluble
MKLIWSPETASKAYIDTVKSCENLGTPGAAELVAAMAAGWNANLIVETWSEGETIAISVGLNIASRHTNGRHICIVPNARSQTAYLQAMAEQSCSNLPETIIMNEEGEELEHTMQTLQGIDFLVVDWDQKDFAANVLRNAVFGSRGAVVVCRSGYRRSTSCFSWTKAFSDRNVVRTVTLPVSGGLEIAHVAAARSSGKSDNNSNKRKWIKHFDQRSGEEHVIRK | soluble
GHMEDFWVQYGDEMLPVIGDFPRKGDYLPSFMLVDDQKHDAALESFSHTPKLIVTLLSVDEDEHAGLLLLRETRRFLDSWPHLKLIVITVDSPSSLARARHEHGLPNIALLSTLRGRDFHKRYGVLITEYPLSGYTSPAIILADAANVVHYSERLANTRDFFDFDAIEKLLQEGEQQAMAAEREAAEARQEQDAEREKGTERLLEKAKLIQDQLNRNGDPGRGS | soluble
MVEQCPALKSRIKPMLSQKRLVYKPLGSFYQVLSAEAYTKHGLNVHGVVFDELHAQPNRDLYDVMLHGSGDARKQPLFFLITTAGTDRNSICWEVHQKAEDILQGRKIDPTFYPVIYSASDTDDWTSEKVWRKVNPSLGITVDIEKLRVACENAKQNPAEENLFRQLRLNQWVKQSVRWMPMDKWDKCAFPVDAEKLRGRTCYGGLDLSSTTDITAFVLVFPPLDESDKYQILTFFWIPEENIDQRVRRDHVPYDVWERQGFLYTTEGNVVHYGFIETFIEELGMKYNIKEIAFDRWGAIQMTQNLEALGFTVVPFGQGFKDMSPPTKELMKLTLEERIAHGGHPVLRWMMDNIYVKTDPAGNIKPDKEKSTERIDGAVALIMALDRALRHDGDERNGSIYDERGILFL | soluble
MEGIDHLADERNKAEFDVEDMKIVWAGSRHAFEVSDRIARLVASDPVFEKSNRARLSRKELFKSTLRKCAHAFKRIIELRLNEEEAGRLRHFIDQPAYVDLHWGMFVPAIKGQGTEEQQKKWLSLANKMQIIGCYAQTELGHGSNVQGLETTATLDPKTDEFVIHTPTQTASKWWPGGLGKVSTHAVVYARLITNGKDYGIHGFIVQLRSLEDHSPLPNITVGDIGTKMGNGAYNSMDNGFLMFDHVRIPRDQMLMRLSKVTREGEYVPSDVPKQLVYGTMVYVRQTIVADASNALSRAVCIATRYSAVRRQFGAHNGGIETQVIDYKTQQNRLFPLLASAYAFRFVGEWLKWLYTDVTERLAASDFATLPEAHACTAGLKSLTTTATADGIEECRKLCGGHGYLWCSGLPELFAVYVPACTYEGDNVVLQLQVARFLMKTVAQLGSGKVPVGTTAYMGRAAHLLQCRSGVQKAEDWLNPDVVLEAFEARALRMAVTCAKNLSKFENQEQGFQELLADLVEAAIAHCQLIVVSKFIAKLEQDIGGKGVKKQLNNLCYIYALYLLHKHLGDFLSTNCITPKQASLANDQLRSLYTQVRPNAVALVDAFNYTDHYLNSVLGRYDGNVYPKLFEEALKDPLNDSVVPDGYQEYLRPVLQQQL | soluble
MIVPALIGSLPRPIGLAKKIELYSIGRLSEEKLEEAYRSYTRKAFENLKKARIKVITDGLYRWDDIFNPLIRFIDGVEVNGLFKFYENNFFYRSPVVRGELSLKENPLPGWISIAQEIKEDVYPEAELKAVLPGPVTLAYHSINEYYKDLNELTEAYATVLRELIKELDVKIMELQEPSLAAELSKATRESEEHVSKEVAKKVIEDLARVKKLWVVTYFGTPQVVPKDVILNIDLIEGNVPDEVKGEVGLGIVNARETKMERADRLKDKLRKYIRKFEKVYVTPNTLLDFLPERVAWKKLKLLGRLGGELEHHHHHH | not soluble
MGSDKIHHHHHHMARSWLDYKTQAWVQWCPGCGDFGILNSIYRAVSELGIDPENLAVVGGIGCSGRTTYYVKGSNFHALHGRAIPVATGVKLANPHLNVIVAGGDGDLMGIGGGHFVALGRRNLNITVLLFDNAVYGLTKGQAAPTLPAWVKTKALSMPNIHDNINPVLLAFAAGYTFIARGYAYHTQQLKELIKTAVRHRGAALVDILQPCPTYNNIMTNKWYEERIYYVDQEEGYDPIIRTPEEFQKKAPAIAAKLMEFGDRIPLGILYWNQTRESFEERLEKIMPGYMSAPPATRRIELEGKPFLHPFDIFKDRLVTP | not soluble
MIDVPFLKNVTLKKENIPSFSAYPYCLPAIRTLQSLAFHPNVTFIIGENGTGKSTLLEGIAIALGFNAEGGTKNFRFSTNDSHSSLHEYLRISKSFNTPSDGFFLRAESFYNVASYIDEIDADLEARGNPVIDSYGGISLHEQSHGESFFSLFMNRFSGQGLYILDEPEAALSPMRQLSMLIRMHELAEQGSQFVIATHSPILMAYPESTIYSLTQEGIQESALEDTEHYQTTKLFFENRDRLFHHLFNSLEHHHHHH | soluble
MFNKVSVIGLGYIGLPTAAVLASRGLDVVGVDVNAHAVDTINKGEIHIVEPDLDIVVRSAVMTGKLKATLTAEPADAFLVAVPTPFKGDNHEPDLSYIEAAAKTIAPVLAKGNLVVLESTSPVGTTEKLAQWLAEARPDLTFPQQKGIAADVKIAYCPERVLPGYVLQELVSNDRVIGGVSKACSEKAVALYKTFVKGECIVTNARTAEMAKLTENSFRDVNIAFANELSLVCNKLKINVWELIRLANRHPRVSILNPGPGVGGHCIAVDPWFIVNSCPDEAQLIRTAREVNDGKPHWVVDQVKQAADQFKKPIIACLGLAFKADIDDLRESPALDITKHLAESKVGQLLAVEPNITELPSKLAKQGIELVSLERALELANIVVVLVDHKEFKAADKTEFAKKVVIDTRGVVA | not soluble
MSLADYLTVTHLTKYLKLKFDRDPYLERVYLTGQVSNFRKRPTHQYFSLKDESAVIQATMWAGVYKKLGFDLEEGMKINVIGRVQLYEPSGSYSIVIEKAEPDGIGALALQFEQLKKKLTAEGYFEQKHKQPLPQFVSKIGVITSPSGAVIRDIITTVSRRFPGVEILLFPTKVQGDGAAQEVVANIRRANQREDLDLLIVGRGGGSIEDLWAFNEEIVVQAIFESQLPVISSVGHETDTTLADFVADRRAATPTAAAELATPITKTDLMSWIVERQNRSYQACLRRIKQRQEWVDKLSQSVIFRQPERLYDAYLQKIDRLSMTLMNTMKDRLSSAKENKVQLDHALANSQLQTKIERYQDRVATAKRLLMANMASQYDSQLARFEKAQDALLSLDASRIIARGYAMIEKNQALVASVSQITKGDQLTIKMRDGQLDVEVKDVKNENIEGHHHHHH | not soluble
MGSDKIHHHHHHMELVQFGCEDWLNVWEKSATIDIAQSTIDSLSLEEVLAFEEDNGEAFMSQMMKEKFSYGWIEGSPAFKSEVAKLYKRVPEDNILSTNGATGANFLTILGLIGQGDHVIAQYPSYQQLYDWPKTLGAQVDYWHIKEENNWLPQIEELRRLVKSNTKLICLNNAAQPTGAIMSPKFLSEVVEIARSVDAYILCDEVYLPLDEETPYSPIADLYEKGISTNSISKTYSVPGIRVGWVATQDRDLCNEFRKIRDYTLICTGVFDDAVAALVLKHKDKVLERARKIVKGNLSILKEWVENEPLVSMVYPNAVSVSFVKFEELDPTKTEDFAIQLLREKGVLIIPGNRFDLSGYARIGYCTDETTLRQGLKLLSEFLREYQV | not soluble
MGTIKIVTDSSITIEPELIKALDITVVPLSVMIDSKLYSDNDLKEEGHFLSLMKASKSLPKTSQPPVGLFAETYENLVKKGVTDIVAIHLSPALSGTIEASRQGAEIAEAPVTVLDSGFTDQAMKFQVVEAAKMAKAGASLNEILAAVQAIKSKTELYIGVSTLENLVKGGRIGRVTGVLSSLLNVKVVMALKNDELKTLVKGRGNKTFTKWLDSYLAKNSHRPIAEIAISYAGEASLALTLKERIAAYYNHSISVLETGSIIQTHTGEGAFAVMVRYE | soluble
MIVIKTYQEENASALWDVFFNTVRKVNRKDYSNEQVTAWAPESFDTDVWKNKMQSLNPFIAEIDGVIVGYSDLQDDGLIDHFFCHYQHQGKGVGSALMTHILELAKERKLPRVYSHVSITAKPFYERFGFTVVKPQCIDVRGEQLINYVMERQ | not soluble
MRCVVYSIAKSSPLELVKIYQKQCRQFDCELELVDLFPKNTANAQKVSKKLAQKSYSLAFEPYLNPKAKNIALHPKAQRGDSFAFSKMLENHLNINFFIAGAYGFEENFLKDCQAWSLSEMTFSHEVAKIVLCEQIYRALSIIFKHPYHKLEHHHHHH | not soluble
